Values quoted from earlier work in article PMC10155966.

Experiments:
LC8 = LC8 (UniProt P63167)
[1] = target: dynein intermediate chain (IC) (Rattus norvegicus) (UniProt Q63100); test: ITC
Chain of UniProt Q63100 (Q63100 2-643): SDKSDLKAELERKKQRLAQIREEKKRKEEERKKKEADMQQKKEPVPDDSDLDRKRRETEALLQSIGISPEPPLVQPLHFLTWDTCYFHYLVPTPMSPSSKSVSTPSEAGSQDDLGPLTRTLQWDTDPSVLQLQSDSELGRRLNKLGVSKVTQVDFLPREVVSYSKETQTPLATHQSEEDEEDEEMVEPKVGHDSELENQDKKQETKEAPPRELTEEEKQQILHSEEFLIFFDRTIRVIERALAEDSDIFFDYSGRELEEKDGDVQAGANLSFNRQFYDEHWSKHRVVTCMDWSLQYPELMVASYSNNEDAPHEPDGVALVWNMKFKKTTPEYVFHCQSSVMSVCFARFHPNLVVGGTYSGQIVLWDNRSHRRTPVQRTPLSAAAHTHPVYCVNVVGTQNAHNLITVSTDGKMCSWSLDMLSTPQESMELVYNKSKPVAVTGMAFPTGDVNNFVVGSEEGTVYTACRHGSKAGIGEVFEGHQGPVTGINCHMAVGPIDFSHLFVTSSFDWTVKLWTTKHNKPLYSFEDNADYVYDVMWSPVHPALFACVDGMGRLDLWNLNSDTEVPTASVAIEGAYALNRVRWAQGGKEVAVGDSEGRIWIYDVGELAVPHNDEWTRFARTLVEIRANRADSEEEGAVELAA

Chain of LC8 (P63167 whole entry): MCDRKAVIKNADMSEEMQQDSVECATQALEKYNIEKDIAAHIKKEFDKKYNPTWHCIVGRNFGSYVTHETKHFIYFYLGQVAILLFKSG

| Substance | Kd (LC8) [nM] | Kd [1] [nM] |
| --- | --- | --- |
| LC8 (from UniProt P63167) | 60 |  |
| NudE (from UniProt Q9ES39) |  | 2300 |
